Blank lines part the entries; values can stand above or below the binder they belong to. No end group written: not given here.
Key:
[1] = target: T1, talin-1 R7–R8 fragment (residues 1355–1652) with mutation Y1389C (mouse, UniProt P26039 1355-1652, Y1389C); experiment: fluorescence polarisation; R7–R8 protein serially diluted from 60 µM with KANK1 (30–68) peptide at 1 µM, and from 75 µM with RIAM (4–30) peptide at 1 µM; 20 °C; CLARIOstar plate reader; one-site total binding equation; conditions: both partners purified
T1 construct: talin-1, mouse, R7–R8 domains, residues 1355–1652, with Y1389C; The mutation is a somatic mutation of human cancers (COSMIC), put into the mouse talin-1 fragment by site-directed mutagenesis; also called R7–R8 Y1389C; source: E. coli BL21 (DE3), purified (HisTrap HP, HiTrap Q HP anion exchange)

[2] = target: T2, talin-1 R7–R8 fragment, wildtype (residues 1355–1652) (mouse, UniProt P26039 1355-1652); experiment: as above; conditions: both partners purified
T2 construct: talin-1, mouse, R7–R8 domains, residues 1355–1652, made from full-length mouse talin-1 as template; also called R7–R8 WT; Wildtype R7–R8; source: E. coli BL21 (DE3), purified (HisTrap HP, HiTrap Q HP anion exchange)

[3] = target: T3, talin-1 R7–R8 fragment (residues 1355–1652) with mutation R1368W (mouse, UniProt P26039 1355-1652, R1368W); experiment: as above; conditions: both partners purified
T3 construct: talin-1, mouse, R7–R8 domains, residues 1355–1652, with R1368W; The mutation is a somatic mutation of human cancers (COSMIC; also in the 1000 Genomes database), put into the mouse talin-1 fragment by site-directed mutagenesis; also called R7–R8 R1368W; source: E. coli BL21 (DE3), purified (HisTrap HP, HiTrap Q HP anion exchange)

[4] = target: T1, talin-1 R7–R8 fragment (residues …); experiment: SEC; Vd1 and talin R7–R8 incubated at a 2:1 ratio at a concentration of 100 µM, analysed at room temperature; elution fractions on SDS-PAGE; conditions: both partners purified
[5] = target: T2, talin-1 R7–R8 fragment, wildtype …; experiment: as above; conditions: both partners purified
[6] = target: T3, talin-1 R7–R8 fragment (residues …); experiment: as above; conditions: both partners purified
[7] = target: the molecule itself; experiment: SEC-MALS; 100 μM protein, room temperature, Superdex 75 column; Viscotek SEC–MALS 9 and RI detector; dimer or monomer

T2 sequence (P26039 1355-1652): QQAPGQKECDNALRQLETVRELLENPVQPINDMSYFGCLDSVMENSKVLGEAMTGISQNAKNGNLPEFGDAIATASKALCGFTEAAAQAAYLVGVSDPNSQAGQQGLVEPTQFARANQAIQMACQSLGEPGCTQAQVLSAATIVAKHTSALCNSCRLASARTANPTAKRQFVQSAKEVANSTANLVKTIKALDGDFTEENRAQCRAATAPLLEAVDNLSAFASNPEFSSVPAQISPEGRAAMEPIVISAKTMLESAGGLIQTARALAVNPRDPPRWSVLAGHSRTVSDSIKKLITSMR
T1 sequence (P26039 1355-1652 Y1389C): as the sequence (P26039 1355-1652) above, with Y35C counted along it
T3 sequence (P26039 1355-1652 R1368W): as the sequence (P26039 1355-1652) above, with R14W counted along it

binding result [1]: binds
binding result [2]: binds
binding result [3]: binds
B1: RIAM (4–30) peptide (peptide)
peptide: SEDIDQMFSTLLGEMDLLTQSLGVDTC
modifications: also: BODIPY or Fluorescein dye coupled via C-terminal Cys
notes: RIAM, mouse, printed as residues 4–30; added C-terminal cysteine for coupling of the dye; also called RIAM peptide; LD-motif of RIAM; source: synthetic peptide (GLBiochem, China)

stoichiometry N [4]: 2
stoichiometry N [5]: 1
stoichiometry N [6]: 1
B2: vinculin Vd1 domain (residues 1–258) (domain or fragment, UniProt P12003 1-258, looked up)
chain: MPVFHTRTIESILEPVAQQISHLVIMHEEGEVDGKAIPDLTAPVSAVQAAVSNLVRVGKETVQTTEDQILKRDMPPAFIKVENACTKLVRAAQMLQADPYSVPARDYLIDGSRGILSGTSDLLLTFDEAEVRKIIRVCKGILEYLTVAEVVETMEDLVTYTKNLGPGMTKMAKMIDERQQELTHQEHRVMLVNSMNTVKELLPVLISAMKIFVTTKNTKSQGIEEALKNRNFTVEKMSAEINEIIRVLQLTSWDEDAW
notes: vinculin, Vd1 domain, residues 1–258

B3: talin-1 R13–DD fragment, wildtype (residues 2300–2541) (domain or fragment, mouse, UniProt P26039 2300-2541, looked up)
chain: DPTVIAENELLGAAAAIEAAAKKLEQLKPRAKPKEADESLNFEEQILEAAKSIAAATSALVKAASAAQRELVAQGKVGAIPANALDDGQWSQGLISAARMVAAATNNLCEAANAAVQGHASQEKLISSAKQVAASTAQLLVACKVKADQDSEAMKRLQAAGNAVKRASDNLVKAAQKAAAFEDQENETVVVKEKMVGGIAQIIAAQEEMLRKERELEEARKKLAQIRQQQYKFLPSELRDEH
notes: talin-1, mouse, R13 and dimerisation domain (DD), residues 2300–2541; Constitutive dimer by SEC–MALS; also called R13–DD WT; Talin R13–DD wildtype; source: E. coli BL21 (DE3), purified (HisTrap HP, HiTrap Q HP anion exchange)
stoichiometry N [7]: 2

Reference: paper PMC7801617, “Cancer associated talin point mutations disorganise cell adhesion and migration” (Scientific Reports, 2021)
